Reference: patent US20180030111A1
Like-named read-outs stand apart in the source and are kept apart here.

Legend:
[1] = biological target: FcgRIIIa receptor (CD16a) (human) (UniProt P08637); assay: cell-based or functional assay
[2] = biological target: FcgRIIIa receptor (CD16a) on human NK cells (human) (UniProt P08637); assay: cell-based or functional assay
[3] = biological target: C1q complement (rabbit serum as complement source) (rabbit); assay: cell-based or functional assay
[4] = biological target: FcgRIIIa receptor (CD16a) on human NK cells (human) (UniProt P08637); assay: cell-based or functional assay; remark: listed apart in the source
[5] = biological target: C1q complement (rabbit serum as complement source) (rabbit); assay: cell-based or functional assay; remark: listed apart in the source
[6] = biological target: C1q complement (rabbit serum as complement source) (rabbit); assay: cell-based or functional assay; remark: listed apart in the source
[7] = biological target: CD32aH (FcgRIIa receptor, H at position 131) (human) (UniProt P12318); assay: ELISA, purified IgG on coated receptor, ratio against wild-type
Chain of CD32aH (FcgRIIa receptor, H at position 131) (human) (P12318 34-217): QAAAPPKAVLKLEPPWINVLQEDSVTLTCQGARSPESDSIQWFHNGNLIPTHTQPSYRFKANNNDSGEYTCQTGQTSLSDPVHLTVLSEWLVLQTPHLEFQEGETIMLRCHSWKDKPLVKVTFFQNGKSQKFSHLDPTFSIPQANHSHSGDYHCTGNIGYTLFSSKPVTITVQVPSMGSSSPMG

[8] = biological target: CD32aR (FcgRIIa receptor, R at position 131) (human) (UniProt P12318); assay: as above
[9] = biological target: CD32b (FcgRIIb receptor) (human) (UniProt P31994); assay: as above
Chain of CD32b (FcgRIIb receptor) (human) (P31994 46-217): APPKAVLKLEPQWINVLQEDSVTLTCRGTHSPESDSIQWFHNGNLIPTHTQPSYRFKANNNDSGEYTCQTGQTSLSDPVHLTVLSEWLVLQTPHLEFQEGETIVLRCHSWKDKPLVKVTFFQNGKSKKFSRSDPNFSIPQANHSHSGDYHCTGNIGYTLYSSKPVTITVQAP

CD64 = CD64 (UniProt P12314); assay: as above
Chain of CD64 (P12314 16-288 limits assumed): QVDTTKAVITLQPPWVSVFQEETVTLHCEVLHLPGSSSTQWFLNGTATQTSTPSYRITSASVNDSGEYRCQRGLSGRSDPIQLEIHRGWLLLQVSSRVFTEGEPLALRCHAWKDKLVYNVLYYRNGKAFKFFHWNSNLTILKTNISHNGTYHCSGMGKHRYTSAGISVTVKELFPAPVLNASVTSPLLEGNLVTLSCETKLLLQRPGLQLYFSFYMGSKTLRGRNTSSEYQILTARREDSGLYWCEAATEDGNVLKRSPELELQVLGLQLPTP

Chain of FcgRIIIa receptor (CD16a) on human NK cells (human) (P08637 17-254): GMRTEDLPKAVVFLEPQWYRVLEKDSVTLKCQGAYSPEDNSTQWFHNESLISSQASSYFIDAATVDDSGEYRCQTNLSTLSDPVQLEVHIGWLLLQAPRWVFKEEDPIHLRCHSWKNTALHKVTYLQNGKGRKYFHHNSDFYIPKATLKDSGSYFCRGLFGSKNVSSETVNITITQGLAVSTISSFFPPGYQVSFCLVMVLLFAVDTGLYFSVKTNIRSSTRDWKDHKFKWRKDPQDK
Chain of FcgRIIIa receptor (CD16a) (human) (P08637 17-254): as above

Substance: IgG-WT (antibody)
- ADCC EC50: Antibody concentration (ng/ml) giving 50% lysis of an internal control [1]: 12.3 ng/mL
- ADCC, Ratio [WT]/[antibody] [1]: 1

Substance: anti-CD20 IgG1 with wild-type Fc (IgG-WT) (antibody)
- ADCC, EC50: Antibody concentration (ng/ml) giving 50% maximum lysis of an internal control [2]: 0.45 ng/mL
- CDC, Antibody concentration (ng/ml) giving 50% lysis of an internal control [3]: 262 ng/mL
- CDC, Ratio [WT]/[antibody] [3]: 1
- ADCC, EC45: Antibody concentration (ng/ml) giving 45% maximum lysis of an internal control [4]: 1.6 ng/mL
- ADCC, EC50: Antibody concentration (ng/ml) giving 50% maximum lysis of an internal control [4]: 10.5 ng/mL
- ADCC, Ratio [WT]/[antibody] [4]: 1
- CDC, Antibody concentration (ng/ml) giving 50% lysis of an internal control [5]: 237 ng/mL
- CDC, Antibody concentration (ng/ml) giving 50% lysis of an internal control [6]: 133 ng/mL

Substance: anti-CD20 IgG variant A3A-31 (K334R, L410R) (antibody)
- ADCC, EC50: Antibody concentration (ng/ml) giving 50% maximum lysis of an internal control [2]: 1.84 ng/mL
- ADCC, Ratio [WT]/[antibody] [2]: 0.24
- CDC, Antibody concentration (ng/ml) giving 50% lysis of an internal control [3]: 108 ng/mL
- CDC, Ratio [WT]/[antibody] [3]: 2.42

Substance: anti-CD20 IgG variant A3A-105 (G316D, K326E) (antibody)
- ADCC, EC50: Antibody concentration (ng/ml) giving 50% maximum lysis of an internal control [2]: 1.37 ng/mL

Substance: anti-CD20 IgG variant A3A-173 (K248E, K334R, A378V) (antibody)
- ADCC, EC50: Antibody concentration (ng/ml) giving 50% maximum lysis of an internal control [2]: 1.38 ng/mL
- ADCC, Ratio [WT]/[antibody] [2]: 0.33
- CDC [3]: 29.5
- CDC, Antibody concentration (ng/ml) giving 50% lysis of an internal control [3]: 16 ng/mL
- CDC, Ratio [WT]/[antibody] [3]: 16.4
- ADCC [4]: 0.3
- ELISA ratio (purified antibodies) [7]: 0.95
- ELISA ratio (purified antibodies) [8]: 1.3
- ELISA ratio (purified antibodies) [9]: 1.3
- ELISA ratio (purified antibodies) (CD64): 1.2

Substance: anti-CD20 IgG variant J3B-115 (T359A, S383R, V397M) (antibody)
- ADCC, EC50: Antibody concentration (ng/ml) giving 50% maximum lysis of an internal control [2]: 0.57 ng/mL
- CDC [3]: 3.2
- CDC, Antibody concentration (ng/ml) giving 50% lysis of an internal control [3]: 145 ng/mL

Substance: anti-CD20 IgG variant K3B-01 (N315D, N361H, P396L) (antibody)
- CDC [3]: 4
- ADCC [4]: 15.2
- ADCC, EC50: Antibody concentration (ng/ml) giving 50% maximum lysis of an internal control [4]: 0.69 ng/mL
- ADCC, Ratio [WT]/[antibody] [4]: 15.2
- CDC, Antibody concentration (ng/ml) giving 50% lysis of an internal control [5]: 59.6 ng/mL
- CDC, Ratio [WT]/[antibody] [5]: 3.97
- ELISA ratio (purified antibodies) [7]: 5.7
- ELISA ratio (purified antibodies) [8]: 1
- ELISA ratio (purified antibodies) [9]: 1
- ELISA ratio (purified antibodies) (CD64): 2.3

Substance: anti-CD20 IgG variant K3B-90 (V308A, K334R, A378V, K447N) (antibody)
- ADCC, EC50: Antibody concentration (ng/ml) giving 50% maximum lysis of an internal control [2]: 0.75 ng/mL
- ADCC, Ratio [WT]/[antibody] [2]: 0.6
- CDC [3]: 20.4
- CDC, Antibody concentration (ng/ml) giving 50% lysis of an internal control [3]: 23.1 ng/mL
- CDC, Ratio [WT]/[antibody] [3]: 11.3
- ADCC [4]: 0.6
- ELISA ratio (purified antibodies) [7]: 1.2
- ELISA ratio (purified antibodies) [8]: 1.2
- ELISA ratio (purified antibodies) [9]: 1.1
- ELISA ratio (purified antibodies) (CD64): 1.5

Substance: anti-CD20 IgG variant N3A-87 (K290E, K320E, T350A, P396L) (antibody)
- CDC [3]: 1.3
- ADCC [4]: 1
- ADCC, EC45: Antibody concentration (ng/ml) giving 45% maximum lysis of an internal control [4]: 1 ng/mL
- ADCC, Ratio [WT]/[antibody] [4]: 1
- CDC, Antibody concentration (ng/ml) giving 50% lysis of an internal control [6]: 106 ng/mL
- CDC, Ratio [WT]/[antibody] [6]: 1.25
- ELISA ratio (purified antibodies) [7]: 3.92
- ELISA ratio (purified antibodies) [8]: 3.7
- ELISA ratio (purified antibodies) [9]: 9
- ELISA ratio (purified antibodies) (CD64): 1.5

Substance: anti-CD20 IgG variant O3A-05 (K290E, T366A, A378V) (antibody)
- CDC [3]: 1.5
- ADCC [4]: 8
- ADCC, EC45: Antibody concentration (ng/ml) giving 45% maximum lysis of an internal control [4]: 0.2 ng/mL
- ADCC, Ratio [WT]/[antibody] [4]: 8
- CDC, Antibody concentration (ng/ml) giving 50% lysis of an internal control [6]: 91 ng/mL
- CDC, Ratio [WT]/[antibody] [6]: 1.46
- ELISA ratio (purified antibodies) [7]: 4.02
- ELISA ratio (purified antibodies) [8]: 3.3
- ELISA ratio (purified antibodies) [9]: 4.5
- ELISA ratio (purified antibodies) (CD64): 1.2

Substance: anti-CD20 IgG variant Q3A-39 (N286I, P396L, N421T) (antibody)
- CDC [3]: 2.2
- ADCC [4]: 5.3
- ADCC, EC45: Antibody concentration (ng/ml) giving 45% maximum lysis of an internal control [4]: 0.3 ng/mL
- ADCC, Ratio [WT]/[antibody] [4]: 5.33
- CDC, Antibody concentration (ng/ml) giving 50% lysis of an internal control [6]: 61 ng/mL
- CDC, Ratio [WT]/[antibody] [6]: 2.18
- ELISA ratio (purified antibodies) [7]: 4.83
- ELISA ratio (purified antibodies) [8]: 2.3
- ELISA ratio (purified antibodies) [9]: 3.8
- ELISA ratio (purified antibodies) (CD64): 1.5
